In a protein production outcome set (Wang et al. 2014):

Test: label from the status in PepcDB records

Sequence | protein production
MGNFLRRSCAVHPASGDGGRGRHVDEPPQQRPSSVRIKVRMRRDQLEELLYLARRGDQSDDGGKIGFLILKECMEGRLPASVLGSGGDVRSQRRGSYMVYRRLGSITEE | failed
MGNFTFEEMNLMCIYNTGSRTGLIDSLREMRGELSPEETELRELTDSALTKLCAMTDEDFAQLELYPDFDQLEHHHHHH | not failed
MGNKLVNSLSKITTSSKEVTSDILVMNFTIVNAFLIGNKTQWVLVDTALENSADFILKAAEKRFGKGSVPKAIILTHGHFDHVGSVIKLSKLWSVPVYIHELEMPYVTGKKDYPLADPTVDEGMVAKISQTFPHTSIDISSNVSPLPSDSSIPYMPDWKWIHTPGHTDGHISLFREKDHVLIVGDAFCTTKQESLLSVITHHEEISGPPKYLTTDWAKAKNSIICLKNLKPLIAIPSHGEELSGEELTKHLELLINNFDEIAKPAEGQFVTNK | failed
MGNLKAEYLEQTYIDLAPLKDAEDCRTYLTRSQVDGSLAVRKEICALQYPLYQQLIDFSHPSLARVLETYTKDGRYFVLEEYVSGSTIGSYLKRGYHFQEHEILSFISQLCSALSFLHAHNIIHRDVTPENLLISTDNVLKLIDFGISRSKKEGQSQDTTILGTVGYAAPEQFGFGQTDERTDIYATGVLLNVLLTGSLPKDDLPFDPRYRQIVLKCTSISPADRYSSVSELKSQIMAIKPTRIYQAEIVEPSGKAPRKDSLIRRFFRHVPGFRTGNPGKMIVAIIGYFLMLLFVVVNGTRPLEPGDIRSEYWTINYFFVGVWAAYVNLGNYCGHIEAYDKVGPLTRLLLRTAVALAVFLTTGLLLYFENYCLK | failed
MGNNGRDILAGLSVAGLMLPEAIAYSGIAGVPPQHALYAAMAGCLVYALLGQSRFAIISPTSSSAAILAAMLAALVPQPGQKMLLVAVAVFLVGLFFLAAGTLRLGALSSIISRPVLRGFAFGLAILISLKQFPAIFGMPQAGAGTFEAILQILTNPGQWNGFSLSIGIAALILLLFARRYPQIPGSLIIIALAIPISVMFDLQQRGVDVVGPIDLSGIWGSVTTLSLDELAHVARFAPPLVLILFAESWGTIRGLSLRHGEDVDANRELKTLGIANVASAALQGMPVGAGFSAGAASEAANPRTRMASAIAAIGLAGFTFAAADWFAYIPHAALSAIIIVALLHALDPSPFLRLWRLRQDLVLALAATAGVLFLGVLNGMLAAIVLSFAVFLQRLSSPRIVMLGRLGASHDFVDVKRHPDAAEPAGMLVLRPAQPLFFGNAEPTFAEITRRILASPDINAVIISLEETFELDTTALEALLEFDASLRGRNIGIRYAPMHDAVRDVVAAGGGDDLLRRANYSVDDAVAAMDGLKEEK | failed
MGNNNSTKESTHDNHSDSSTHEEMDHSGSADVPEGLQESKNPKYKVGSQVIINTSHMKGMKGAEATVTGAYDTTAYVVSYTPTNGGQRVDHHKWVIQEEIKDAGDKTLQPGDQVILEASHMKGMKGATAEIDSAEKTTVYMVDYTSTTSGEKVKNHKWVTEDELSAKLEHHHHHH | not failed
MGNQDTIIETDNGNSDYETPQPTSFPLEHNHFGVMEDGYIKIYEYNESRNEVKLKKEYADDELELEHHHHHH | not failed
MGNSLHQIKCCTSFIHCQNAAVDAPSIAKTLADYLYPAFFHQDLPAPLKISVTGCPNQCGGGVEADIGISGYFATVPRVDDAGLMAANIDFGHLISGCPVGAIRPRQVEGGTTVVINAERCIRCTSCIQVAPEGIKPGPERFVAIAVGGHGGNNRRGPEMAAVVFSRVPARPLDYAAICERVQRIIACWRDRGKRGERLAGFLERLEHHHHHH | failed
MGNSQRQSEEIEAMAAIYGEEWCVIDENAKIFCIRVTDFMDDPKWTLCLQVMLPSEYPGTAPPSYQLNAPWLKGQERADLSNSLEEIYVHNMGESILYQWVEKIRDALIQKSQITEP | not failed
MGNTIRALVAFIPADRCQNYVVRDLREMPLDKMVDLSGSQLRRFPLHVCSFRELVKLYLSDNHLNSLPPELGQLQNLQILALDFNNFKALPQVVCTLKQLCILYLGNNKLCDLPSELSLLQNLRTLWIEANCLTQLPDVVCELSLLKTLHAGSNALRLLPGQLRRLQELRTIWLSGNRLTDFPTVLLHMPFLEVIDVDWNSIRYFPSLAHLSSLKLVIYDHNPCRNAPKVAKGVRRVGRWAEETPEPDPRKARRYALVREESQELQAPVPLLPPTNS | failed
MGNTTSDRVSGERHGAKAARSEGAGGHAPGKEHKIMVGSTDDPSVFSLPDSKLPGDKEFVSWQQDLEDSVKPTQQARPTVIRWSEGGKEVFISGSFNNWSTKIPLIKSHNDFVAILDLPEGEHQYKFFVDGQWVHDPSEPVVTSQLGTINNLIHVKKSDFEVFDALKLDSMESSETSCRDLSSSPPGPYGQEMYAFRSEERFKSPPILPPHLLQVILNKDTNISCDPALLPEPNHVMLNHLYALSIKDSVMVLSATHRYKKKYVTTLLYKPI | not failed
MGNVLFLVSLSLIWVMLLYHMFLMQGGFRHYMTFERNIPKWKENVKDLPKVSVLIPAHNEEVVIRQTLKAMVNLYYPKDRLEIIVVNDNSSDRTGDIVDEFSTQYGFIKMVVTKPPHAGKGKSSALNCGFAESNGDVICVYDADNTPEKMAVYYLVLGLMNDQKAGAVVGKFRVINAAKTLLTKFINIETICFQWMAQGGRWKWFKIATIPGTNFAIRRSIIEQLGGWDDKALAEDTELTIRVYNLGYHIRFFPAAVTWEQEPETWKVWWRQRTRWARGNQYVVLKFLAQFFKLKRKRIIFDLFYFFFTYFLFFFGVIMSNAIFVINLFYNLHLSFGFLSIILWVLAFFLFMTKVMITLSIEKTEMNRQNFFIVFLMYFTYSQAWIVLVIYSLFVEIKHRLFKQHGTKQNDTIKRKAGDFFEIYHHMSGKLLADHGDGTSGCSQRRYSRRLDPGGKQPGTSQAASAHKRSLDFIRGKRQRRADVSNTGGRLLYPSAAYT | failed
MGPFLMRILALGLVAGAALAQGVQAWLERGERLLSEGAYAEAVAAFEEVLRQDYGQFQAHLGLGVALVRLGRLEEARFAFDQMTRVFPDRYEGHFNLGQVYLRMGEAGKAAEAFAKAAAIAPREEAYLAWSGALLQEGKAREAAAVLERGLSPERSPAYRLALAQALYAAGEREAAVPHLYAALNREPGRAEAWDLLARVLAEVGLADRARREVERGLEAVQDPKGKALLLLRKGTLVEDPEPLWREALALDPDLWQAAYLLGRRRLEAGDLKEGLRWLQEAYAKGQDPEVALALAAAYLKAKDYANAYRYAKEAGPAGAFLQAQAAQGLGRRQEALKLLEGIASPQALALRGSLLLEEGQGEEAVAALQAAYEATRDPQVGVNLGAALVLVKRFGQAELVLREVLAKDPSSAAAWYNLGLALRGLGRQAEADRALRQAAALGSREARALLGR | failed
MGPLLVWHRGDLRLHDHPALLEALARGPVVGLVVLDPNNLKTTPRRRAWFLENVRALREAYRARGGALWVLEGLPWEKVPEAARRLKAKAVYALTSHTPYGRYRDGRVREALPVPLHLLPAPHLLPPDLPRAYRVYTPFSRLYRGAAPPLPPPEALPKGPEEGEIPREDPGLPLPEPGEEAALAGLRAFLEAKLPRYAEERDRLDGEGGSRLSPYFALGVLSPRLAAWEAERRGGEGARKWVAELLWRDFSYHLLYHFPWMAERPLDPRFQAFPWQEDEALFQAWYEGKTGVPLVDAAMRELHATGFLSNRARMNAAQFAVKHLLLPWKRCEEAFRHLLLDGDRAVNLQGWQWAGGLGVDAAPYFRVFNPVLQGERHDPEGRWLKRWAPEYPSYAPKDPVVDLEEARRRYLRLARDLARG | not failed
MGPVPEFSVIIPARNEAAYLPGTLRALERQTLAPAEVIVVDNASRDQTAQIARSWGAQVLSCPEGGVARARQLGLDTARSSWVATTDADSLPAPGWLAAYAQAALLAGGYPEVEAYEDVILGQNLARLGEIGYVPRALVETSARRLDRGVGPFLIQHLRNLTGHTRGLEHHHHHH | failed
MGQNQFRWSNEQLREHVEVIDGTRSPHIVLRNATYLNSYIREWMQANIWIYDDRIIYVGEKLPEQLHECEVIDCDGKYVVPSYIEPHAHPYQLYNPETLANHAMQFGTTTFINDNLTLFFTLKRELEHHHHHH | failed
MGQPQQPEGAGAEEAAAGTDSGTDTGTGAGAGAATGASATRPPLRVGMVGYAFMGAAHSQGWRTAGRVFDLPLNPVLAAICGRDADAVRLAADRHGWASTETDWRTLVERDDIDLVDICTPGDSHSEIALAALAAGKHVLCEKPLANTVEEAQAMTRAAEEAAARGQLAMVGFNYRRVPATALARRMVAEGRVGRLRHLRVTYLQDWLVDPKAPLTWRLRKELAGSGALGDLGAHIVDLAQYLSGERIAGVSALTETFVRERPLPAGAPRGLSAGSADGVTGQVTVDDAAVFTGRLTSGALVSFEATRYATGRKNALRIELNGERGSLAFDLERLNELSYHDGTEPGEHAGFRRILVTEPEHPYLEAWWPPGHGLGYEHTFVHQARDLVHAVAEGRGPEPSFADGLQVQRVLAAVEESAEKNSVYTPITP | failed
MGQTALARGSSSTPTSQALYSDFSPPEGLEELLSAPPPDLVAQRHHGWNPKDCSENIDVKEGGLCFERRPVAQSTDGVRGKRGYSRGLHAWEISWPLEQRGTHAVVGVATALAPLQADHYAALLGSNSESWGWDIGRGKLYHQSKGLEAPQYPAGPQGEQLVVPERLLVVLDMEEGTLGYSIGGTYLGPAFRGLKGRTLYPSVSAVWGQCQVRIRYMGERRVEEPQSLLHLSRLCVRHALGDTRLGQISTLPLPPAMKRYLLYK | failed
MGRIAWVVRADRPCAATNTHINEPPRRALTSGPGVFIRRTVAAAATRRRYPSAMAIHADTHDDLRLFQTGEHACGYWSDRRARDLVLDPHDPRLGAIYPQALAWGFRRSGDLVYRPHCERCRACVPVRIAVDAFHPDRSQRRCLTRNQDLVVRVVAAERTDEQLALYRQYLKYRHPGGGMDEHGATEFDQFLIGGWSHGRFLEIREPAIAHLPGRLLAVAVTDVTEHALSAIYTFYAPEAAARSLGTFAILQQIQWAQRERRAHVYLGYWIEGHAKMNYKRRFSALEAYDGRHWCDLPAHPSGT | failed
MGRRFDHLGDVEAFIIVAEKGSMTEAAVALATTASVLSRAITRLETRLGAQLMRRTTRRLNLTDEGRAYLEQARAAFSMIDDAERAIQGPTGASLTGHVRISVPTTYGHHRLPAMLERFMQAYPEVQIELSITNRNVDLVAEGYDLAIRLGPLPDSGLVARKLEDASLRLVAAPHYLERAGMPQDVEDLAEHQCLPFVMPSTGRCAPWLFHVDGRDLDWTPPGRIQVFDDVLGVVSLAESGLGICQIYDFIIRDRVKEGRLVEVLDHAQGRFRPFSLIFAPHRRLSAATRTLIDFLVEK | failed
MGRYILGITVLVTVVVAPLEAGLSSVALLALLAAFGIGVQVIAPWFIPLVRSVDTPDDQTTETLNRLRERAGLTVRDVRVLDTEQEGTANVIVRGAPGYRRLFVTSTFLDVFDDEMATALLAVQAGRQEARVRARLIGGLLIALVPVFAALADIGPLWPLVGASLGLLVVTLWVTRRGVRAADDYAAEGVGPDTVADALERYADVHDMEPPRRRLANPFSKSPPLGNRIDRLREQAGE | failed
MGSEVVNPTKPRFDLSMSKRTRKPWSSLINDMHHHAICTQSSQPKPDKEQEQIEDKEIDRKSLNNLMRCDEKLNGEADVNNKSSLDQHFEDGEGIKPTMQLVVKKEKQGGLKFKGLSQHIFRLIEFLLSYRTDY | failed
MGSGHILGTSRLPKETWMANAECFVLMLPLRECAGRCHVCLKTAYTMRHRLIECLSAYSPSFKTGRGCGCELDETYFPESFKGNHTKGSFTMPRHSRHRGKQVHRRGLSREQICVMTGVNDSNETFLQVSGRGILSRKRAMDVLRDRIASASVVATDKASAYVDVLAELEVDAHTAYDSKDPSEGTINRINTVHSLLDTFMKPFKGVSTKHLGTYLAWFKWCRTFMATDSGTAERTVARQLANGVCRSRIHDMFNVLPP | failed
